In patent publication US20240287172A1 (SCIRHOM, published 2024):

target: T1, hiR2-FL-H620R-T7 (human, UniProt Q6PJF5 1-856); assay: FACS, MEF-DKO cells, 3 µg/ml
T1 sequence: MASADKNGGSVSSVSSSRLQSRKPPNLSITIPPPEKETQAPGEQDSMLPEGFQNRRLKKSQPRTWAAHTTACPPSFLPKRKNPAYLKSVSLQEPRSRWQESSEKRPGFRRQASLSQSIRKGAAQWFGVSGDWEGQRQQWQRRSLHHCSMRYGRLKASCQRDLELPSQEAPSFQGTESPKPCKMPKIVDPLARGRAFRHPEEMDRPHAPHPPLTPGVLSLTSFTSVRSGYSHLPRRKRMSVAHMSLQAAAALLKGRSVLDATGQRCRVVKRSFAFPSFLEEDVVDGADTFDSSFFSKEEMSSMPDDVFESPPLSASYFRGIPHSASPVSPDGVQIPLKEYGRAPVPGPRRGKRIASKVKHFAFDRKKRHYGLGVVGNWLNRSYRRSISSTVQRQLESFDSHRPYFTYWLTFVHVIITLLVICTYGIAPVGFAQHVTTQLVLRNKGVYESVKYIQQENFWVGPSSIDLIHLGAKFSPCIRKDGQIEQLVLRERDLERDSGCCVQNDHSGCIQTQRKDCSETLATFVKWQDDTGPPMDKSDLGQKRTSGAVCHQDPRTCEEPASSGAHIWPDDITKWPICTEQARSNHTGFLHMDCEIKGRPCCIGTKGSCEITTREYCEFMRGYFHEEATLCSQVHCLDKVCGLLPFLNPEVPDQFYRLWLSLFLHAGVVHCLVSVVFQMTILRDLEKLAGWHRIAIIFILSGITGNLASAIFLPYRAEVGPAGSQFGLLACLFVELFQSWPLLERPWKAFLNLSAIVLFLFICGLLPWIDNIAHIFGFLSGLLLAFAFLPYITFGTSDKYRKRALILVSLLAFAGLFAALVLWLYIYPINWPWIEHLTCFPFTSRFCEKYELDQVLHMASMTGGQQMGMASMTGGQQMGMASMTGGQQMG
Text: In brief, immortalized MEF-DKO hiR2-FL-G563D-T7, MEF-DKO hiR2-FL-A564P-T7, MEF-DKO hiR2-FL-1566E-T7, MEF-DKO hiR2-FL-D569E-T7, MEF-DKO hiR2-FL-E579K-T7, MEF-DKO hiR2-FL-Q580N-T7, MEF-DKO hiR2-FL-A581S-T7, MEF-DKO hiR2-FL-R582A-T7, MEF-DKO hiR2-FL-S583G-T7, MEF-DKO hiR2-FL-G587N-T7, MEF-DKO hiR2-FL-F588H-T7, MEF-DKO hiR2-FL-L589P-T7, MEF-DKO hiR2-FL-E594V-T7, MEF-DKO hiR2-FL-K596T-T7, MEF-DKO hiR2-FL-S607R-T7, MEF-DKO hiR2-FL-T612S-T7, MEF-DKO hiR2-FL-E617D-T7, MEF-DKO hiR2-FL-H620R-T7, MEF-DKO hiR2-FL-L636M-T7, MEF-DKO hiR2-FL-K638D-T7, MEF-DKO hiR2-FL-1771F-T7, MEF-DKO hiR2-FL-1825V-T7, MEF-DKO hiR2-FL-1828V-T7, MEF-DKO hiR2-FL-N829R-T7, MEF-DKO hiR2-FL-W830C-T7, MEF-DKO hiR2-FL-P831E-T7, MEF-DKO hiR2-FL-I833C-T7, MEF-DKO hiR2-FL-H835F-T7, MEF-DKO hiR2-FL-F8391-T7, MEF-DKO hiR2-FL-S843D-T7, MEF-DKO hiR2-FL-Q853A-T7, MEF-DKO hiR2-FL-V854Q-T7 and MEF-DKO hiR2-FL-R844K-T7 cells were harvested with 10 mM EDTA in PBS, washed and resuspended in FACS buffer (PBS, 3% FBS, 0.05% sodium azide), and seeded in Nunc U-bottom 96-well plates (Thermo Fisher Scientific, USA) at approximately 1×10⁵ cells per well. To pellet cells and remove supernatants, the plates were centrifuged at 1,500 rpm and 4° C. for 3 minutes. For primary staining, cells were resuspended in 100 μl per well of either FACS buffer alone (controls) or the purified antibodies 3, 5, 16, 22, 34, 42, 43, 44, 48, and 50 of the invention at 3 μg/ml in FACS buffer and incubated on ice for 1 hour. Afterwards, plates were centrifuged at 1,500 rpm and 4° C. for 3 minutes and washed twice with 200 μl per well of FACS buffer. For secondary staining, cells were spun down and resuspended in 100 μl per well of PE-conjugated goat anti-mouse IgG F(ab′)2 detection fragment (Dianova, Germany) diluted 1:100 in FACS buffer. Protected from light, the cell suspensions were incubated on ice for 1 hour. Plates were then centrifuged at 1,500 rpm and 4° C. for 3 minutes and washed three times with 200 μl per well of FACS buffer. Finally, cells were resuspended in 150 μl per well of FACS buffer and analyzed using a BD Accuri™ C6 Plus flow cytometer (Becton Dickinson, Germany).

Binder | loss of binding vs wild type
antibody 48 (antibody, V domains shown, mouse IgG, kappa light chain; also called clone #48; purified antibody 48) VH: QVQLQQSGTELVRPGTSVKVSCKASGYAFTNYLIEWVKQRPGQGLEWIGVINPGSGFTKYNEKFKGKATLTADKSSSTVYMHLSSLTSEDSAVYFCARGLYRAMDYWGQGTSVTVSS VL: DIQMTQSPASQSASLGESVTITCLASQTIATWLAWYQQKPGKSPQLLIYGATTLADGVPSRFSGGGSGTKFSFKISSLQAEDFVSYYCQQLYSTPYTFGGGTKLEIK | ≥ 30%
antibody 50 (antibody, V domains shown, mouse IgG, kappa light chain; also called clone #50; purified antibody 50) VH: QVQLQQSGAELVRPGASVKVSCKASGYAFSNYLIEWVKQRPGQGLEWIGVINPGSGFTKYNEKFKGKATLTADKSSSTAYMQLSSLTSEDSAVYFCARGLYRAMDYWGQGTSVTVSS VL: DIQMTQSPASQSASLGESVTITCLASQTIGTWLAWYQQKPGKSPQLLIYAAASLADGVPSRFSGGGSGTKFSFKISSLQAEDFVNYYCQQIYSTPYTFGGGTKLEIK | ≥ 30%
antibody 43 (antibody, V domains shown, mouse IgG, kappa light chain; also called clone #43; purified antibody 43) VH: QVALKESGPGILQPSQTLSLTCSFSGFSLSTFGMGVGWIRQSSGKGLEWLANIWWDDDKYYNPALKSRLTISKDASKNQAFLKIANVDTADTATYYCARIGNYGSNYWYFDVWGTGTTVTVSS VL: QIVLTQSPAIMSASPGERVTMTCSANSRISYMYWYQQKPGSSPRLLIYDTSNLASGVPVRFSGSGSGTSYSLTISRMEAEDAATYNCQQWSSYPLTFGAGTKLELK | ≥ 30%
